Reference: patent US20080219974A1 (published 2008)
Where a chain is given by its changes, count along the chain named.

T1: His-tagged HM1.24 antigen, residues N49-A163 of the extracellular domain (human, UniProt Q10589 49-163)
T1 sequence: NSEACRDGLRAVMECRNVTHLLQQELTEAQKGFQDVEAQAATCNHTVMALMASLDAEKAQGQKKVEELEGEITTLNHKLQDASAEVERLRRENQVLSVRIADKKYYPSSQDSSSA

B1: HM1.24_H1.1 heavy chain variant with HM1.24_L4 light chain (antibody, human IgG1, kappa, V domains shown)
VH: QVQLVQSGAEVKKPGASVKVSCKASGYTFTPYWMQWVRQAPGQGLEWMGSIFPGEGDTRYSQSFQGQVTISADKSISTAYMELSRLRSDDTAVYYCARGLRRGGYYFDYWGQGTLVTVSS
VL: DIVMTQSPLSLPVTLGQPASISCKASQDVNTAVAWYLQKPGKSPKLLIYSASNRYTGVPDRITGSGSGTDFTLKISRVEAEDVGVYYCQQHYSTPFTFGSGTKLEIKR
B2: HM1.24_H1.2 heavy chain variant with HM1.24_L4 light chain (antibody, human IgG1, kappa, V domains shown)
VH: B1 VH with E55S
VL: B1 VL
B3: HM1.24_H2.1 heavy chain variant with HM1.24_L4 light chain (antibody, human IgG1, kappa, V domains shown)
VH: EVQLVESGGGLVKPGGSLRLSCAASGYTFTPYWMQWVRQAPGKGLEWMGSIFPGEGDTRYSQSFQGQVTISADKSISTAYMELSSLRSEDTAVYYCARGLRRGGYYFDYWGQGTLVTVSS
VL: B1 VL
B4: HM1.24_H2.4 heavy chain variant with HM1.24_L4 light chain (antibody, human IgG1, kappa, V domains shown)
VH: B3 VH with E55D, G56A
VL: B1 VL
B5: HM1.24_H1.3 heavy chain variant with HM1.24_L4 light chain (antibody, human IgG1, kappa, V domains shown)
VH: B1 VH with E55D, G56S
VL: B1 VL
B6: HM1.24_H2.3 heavy chain variant with HM1.24_L4 light chain (antibody, human IgG1, kappa, V domains shown)
VH: B3 VH with E55D, G56S
VL: B1 VL
B7: HM1.24_H1.4 heavy chain variant with HM1.24_L4 light chain (antibody, human IgG1, kappa, V domains shown)
VH: B1 VH with E55D, G56A
VL: B1 VL
B8: HM1.24_H0L0_IgG1_WT (antibody, V domains shown)
VH: QVQLQQSGAELARPGASVKLSCKASGYTFTPYWMQWVKQRPGQGLEWIGSIFPGDGDTRYSQKFKGKATLTADKSSSTAYMQLSILAFEDSAVYYCARGLRRGGYYFDYWGQGTTLTVSS
VL: DIVMTQSHKFMSTSVGDRVSITCKASQDVNTAVAWYQQKPGQSPKLLIYSASNRYTGVPDRITGSGSGTDFTFTISSVQAEDLALYYCQQHYSTPFTFGSGTKLEIKR
B9: HM1.24_H2L2 (antibody, human IgG1, kappa, V domains shown)
VH: B3 VH with E55D
VL: DIVMTQSPSSLSASVGDRVTITCQASQDVNTAVAWYQQKPDQSPKLLIYSASNRYTGVPDRITGSGSGTDFTLTISSLQAEDVAVYYCQQHYSTPFTFGSGTKLEIKR
B10: HM1.24_H1L2 (antibody, human IgG1, kappa, V domains shown)
VH: B1 VH with E55D
VL: B9 VL
B11: HM1.24_H0L0 (parent antibody in the flow cytometry screen of Example 3) (antibody, V domains shown)
VH: B8 VH
VL: DIVMTQSHKFMSTSVGDRVSITCKASQDVNTAVAWYQQKPGQSPKLLIYSASNRYTGVPDRITGSGSGTDFTFTISSVQAEDLALYYCQQHYSTPFTFGSGTKLEIK

Target: T1, His-tagged HM1.24 antigen, residues …
Assay: not given

Binding result, binds:
B1
B2
B3
B4
B5
B6
B7

Target: T2, Human HM1.24 on RPMI 8226 multiple myeloma cells (human, UniProt Q10589 1-161)
Assay: flow cytometry on RPMI 8226 multiple myeloma cells, R-PE anti-human IgG F

T2 sequence (Q10589 1-161 limits assumed): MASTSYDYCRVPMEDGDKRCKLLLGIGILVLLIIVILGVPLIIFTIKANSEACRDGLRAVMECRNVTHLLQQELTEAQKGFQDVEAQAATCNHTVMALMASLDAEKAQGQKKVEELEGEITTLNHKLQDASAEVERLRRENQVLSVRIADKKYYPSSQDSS

Binding result, binds:
B8

Target: T2, Human HM1.24 on RPMI 8226 multiple …
Assay: flow cytometry on HM1.24+ RPMI 8226 cells

Binding result, binds:
B9
B10
B11
